Molecular target: FAM118B24–334-F122R (human, UniProt Q9BPY3 24-334, F122R)
Assay: ITC

B1: FAM118B24–334-L32R (domain or fragment)
chain: PTKKPRKLRPSLKTKKPRELVLVIGTGISAAVAPQVPALKSWKGLIQALLDAAIDFDLLEDEESKKFQKCLHEDKNLVHVAHDLIQKLSPRTSNVRSTFFKDCLYEVFDDLESKMEDSGKQLLQSVLHLMENGALVLTTNFDNLLELYAADQGKQLESLDLTDEKKVLEWAQEKRKLSVLHIHGVYTNPSGIVLHPAGYQNVLRNTEVMREIQKLYENKSFLFLGCGWTVDDTTFQALFLEAVKHKSDLEHFMLVRRGDVDEFKKLRENMLDKGIKVISYGDDYADLPEYFKRLTCEISTRGTSAGMVREG
B1 showed a Kd of 233 nM.

From PMC12700824 (2025)
